# B1: DNA polymerase III subunit tau (Bacillus subtilis), P09122 (parent)
# chain: MSYQALYRVFRPQRFEDVVGQEHITKTLQNALLQKKFSHAYLFSGPRGTGKTSAAKIFAKAVNCEHAPVDEPCNECAACKGITNGSISDVIEIDAASNNGVDEIRDIRDKVKFAPSAVTYKVYIIDEVHMLSIGAFNALLKTLEEPPEHCIFILATTEPHKIPLTIISRCQRFDFKRITSQAIVGRMNKIVDAEQLQVEEGSLEIIASAADGGMRDALSLLDQAISFSGDILKVEDALLITGAVSQLYIGKLAKSLHDKNVSDALETLNELLQQGKDPAKLIEDMIFYFRDMLLYKTAPGLEGVLEKVKVDETFRELSEQIPAQALYEMIDILNKSHQEMKWTNHPRIFFEVAVVKICQTSHQSAADLPEVDMLMKKIQQLEQEVERLKTTGIKAAAESPKKEAPRVPKGGKSNYKAPVGRIHEILKEATRPDLDLLRNSWGKLLAHLKQQNKVSHAALLNDSEPVAAGSAAFVLKFKYEIHCKMVAEDNNGVRTNLEQILESMLGKRMDLIGVPEAQWGKIREEFLEDHQQENEGSNEPAEEDPLIAEAKKLVGADLIEIKD
# partner: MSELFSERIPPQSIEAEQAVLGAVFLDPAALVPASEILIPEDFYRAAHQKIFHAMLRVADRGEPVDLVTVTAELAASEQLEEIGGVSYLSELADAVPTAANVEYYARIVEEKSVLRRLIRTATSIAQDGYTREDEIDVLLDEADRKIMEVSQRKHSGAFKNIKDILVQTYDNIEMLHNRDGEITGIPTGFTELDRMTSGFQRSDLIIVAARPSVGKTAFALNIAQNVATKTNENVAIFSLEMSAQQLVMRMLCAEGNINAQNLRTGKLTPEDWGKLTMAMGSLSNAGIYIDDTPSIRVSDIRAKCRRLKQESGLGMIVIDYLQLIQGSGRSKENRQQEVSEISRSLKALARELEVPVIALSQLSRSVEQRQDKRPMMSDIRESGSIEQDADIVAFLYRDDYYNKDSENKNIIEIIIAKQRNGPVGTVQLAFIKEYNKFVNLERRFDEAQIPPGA
# Variants of: B1
# Settings: with dnab_geose dnaB
row,effect of a mutation on the interaction,Variant
1,decreasing interaction strength,MSYQALYRVFRPQRFEDVVGQEHITKTLQNALLQKKFSHAYLFSGPRGTGKTSAAKIFAKAVNCEHAPVDEPCNECAACKGITNGSISDVIEIDAASNNGVDEIRDIRDKVKFAPSAVTYKVYIIDEVHMLSIGAFNALLKTLEEPPEHCIFILATTEPHKIPLTIISRCQRFDFKRITSQAIVGRMNKIVDAEQLQVEEGSLEIIASAADGGMRDALSLLDQAISFSGDILKVEDALLITGAVSQLYIGKLAKSLHDKNVSDALETLNELLQQGKDPAKLIEDMIFYFRDMLLYKTAPGLEGVLEKVKVDETFRELSEQIPAQALYEMIDILNKSHQEMKWTNHPRIFFEVAVVKICQTSHQSAADLPEVDMLMKKIQQLEQEVERLKTTGIKAAAESPKKEAPRVPKGGKSNYKAPVGRIHEILKEATRPDLDLLRNSWGKLLAHLKQQNKVSHAALLNDSEPVAAGSAAFVLKFKYEIHCKMVAEDNNGVRTNLEQILESMLGKRMDLIGVPEAQRGKIREEFLEDHQQENEGSNEPAEEDPLIAEAKKLVGADLIEIKD [W519R]
2,decreasing interaction strength,MSYQALYRVFRPQRFEDVVGQEHITKTLQNALLQKKFSHAYLFSGPRGTGKTSAAKIFAKAVNCEHAPVDEPCNECAACKGITNGSISDVIEIDAASNNGVDEIRDIRDKVKFAPSAVTYKVYIIDEVHMLSIGAFNALLKTLEEPPEHCIFILATTEPHKIPLTIISRCQRFDFKRITSQAIVGRMNKIVDAEQLQVEEGSLEIIASAADGGMRDALSLLDQAISFSGDILKVEDALLITGAVSQLYIGKLAKSLHDKNVSDALETLNELLQQGKDPAKLIEDMIFYFRDMLLYKTAPGLEGVLEKVKVDETFRELSEQIPAQALYEMIDILNKSHQEMKWTNHPRIFFEVAVVKICQTSHQSAADLPEVDMLMKKIQQLEQEVERLKTTGIKAAAESPKKEAPRVPKGGKSNYKAPVGRIHEILKEATRPDLDLLRNSWGKLLAHLKQQNKVSHAALLNDSEPVAAGSAAFVLKFKYEIHSKMVAEDNNGVRTNLEQILESMLGKRMDLIGVPEAQWGKIREEFLEDHQQENEGSNEPAEEDPLIAEAKKLVGADLIEIKD [C483S]
3,decreasing interaction strength,MSYQALYRVFRPQRFEDVVGQEHITKTLQNALLQKKFSHAYLFSGPRGTGKTSAAKIFAKAVNCEHAPVDEPCNECAACKGITNGSISDVIEIDAASNNGVDEIRDIRDKVKFAPSAVTYKVYIIDEVHMLSIGAFNALLKTLEEPPEHCIFILATTEPHKIPLTIISRCQRFDFKRITSQAIVGRMNKIVDAEQLQVEEGSLEIIASAADGGMRDALSLLDQAISFSGDILKVEDALLITGAVSQLYIGKLAKSLHDKNVSDALETLNELLQQGKDPAKLIEDMIFYFRDMLLYKTAPGLEGVLEKVKVDETFRELSEQIPAQALYEMIDILNKSHQEMKWTNHPRIFFEVAVVKICQTSHQSAADLPEVDMLMKKIQQLEQEVERLKTTGIKAAAESPKKEAPRVPKGGKSNYKAPVGRIHEILKEATRPDLDLLRNSWGKLLAHLKQQNKVSHAALLNDSEPVAAGSAAFVLKFKYEIHCKMVAEDNNGVRTNLEQILESMLGKRMSLIGVPEAQWGKIREEFLEDHQQENEGSNEPAEEDPLIAEAKKLVGADLIEIKD [D510S]
4,decreasing interaction strength,MSYQALYRVFRPQRFEDVVGQEHITKTLQNALLQKKFSHAYLFSGPRGTGKTSAAKIFAKAVNCEHAPVDEPCNECAACKGITNGSISDVIEIDAASNNGVDEIRDIRDKVKFAPSAVTYKVYIIDEVHMLSIGAFNALLKTLEEPPEHCIFILATTEPHKIPLTIISRCQRFDFKRITSQAIVGRMNKIVDAEQLQVEEGSLEIIASAADGGMRDALSLLDQAISFSGDILKVEDALLITGAVSQLYIGKLAKSLHDKNVSDALETLNELLQQGKDPAKLIEDMIFYFRDMLLYKTAPGLEGVLEKVKVDETFRELSEQIPAQALYEMIDILNKSHQEMKWTNHPRIFFEVAVVKICQTSHQSAADLPEVDMLMKKIQQLEQEVERLKTTGIKAAAESPKKEAPRVPKGGKSNYKAPVGRIHEILKEATRPDLDLLRNSWGKLLAHLKQQNKVSHAALLNDSEPVAAGSAAFVLKFKYEIHCKMVAEDNNGVRTNLEQILESMLGKRMDLIGVPEAQWGKIREEFLEDHQQENEGSNEPAEEDPLIAEVKKLVGADLIEIKD [A550V]
5,decreasing interaction strength,MSYQALYRVFRPQRFEDVVGQEHITKTLQNALLQKKFSHAYLFSGPRGTGKTSAAKIFAKAVNCEHAPVDEPCNECAACKGITNGSISDVIEIDAASNNGVDEIRDIRDKVKFAPSAVTYKVYIIDEVHMLSIGAFNALLKTLEEPPEHCIFILATTEPHKIPLTIISRCQRFDFKRITSQAIVGRMNKIVDAEQLQVEEGSLEIIASAADGGMRDALSLLDQAISFSGDILKVEDALLITGAVSQLYIGKLAKSLHDKNVSDALETLNELLQQGKDPAKLIEDMIFYFRDMLLYKTAPGLEGVLEKVKVDETFRELSEQIPAQALYEMIDILNKSHQEMKWTNHPRIFFEVAVVKICQTSHQSAADLPEVDMLMKKIQQLEQEVERLKTTGIKAAAESPKKEAPRVPKGGKSNYKAPVGRIHEILKEATRPDLDLLRNSWGKLLAHLKQQNKVSHAALLNDSEPVAAGSAAFVLKFKYEIHCKMVAEDNNRVRTNLEQILESMLGKRMDLIGVPEAQWGKIREEFLEDHQQENEGSNEPAEEDPLIAEAKKLVGADLIEIKD [G492R]
6,decreasing interaction strength,MSYQALYRVFRPQRFEDVVGQEHITKTLQNALLQKKFSHAYLFSGPRGTGKTSAAKIFAKAVNCEHAPVDEPCNECAACKGITNGSISDVIEIDAASNNGVDEIRDIRDKVKFAPSAVTYKVYIIDEVHMLSIGAFNALLKTLEEPPEHCIFILATTEPHKIPLTIISRCQRFDFKRITSQAIVGRMNKIVDAEQLQVEEGSLEIIASAADGGMRDALSLLDQAISFSGDILKVEDALLITGAVSQLYIGKLAKSLHDKNVSDALETLNELLQQGKDPAKLIEDMIFYFRDMLLYKTAPGLEGVLEKVKVDETFRELSEQIPAQALYEMIDILNKSHQEMKWTNHPRIFFEVAVVKICQTSHQSAADLPEVDMLMKKIQQLEQEVERLKTTGIKAAAESPKKEAPRVPKGGKSNYKAPVGRIHEILKEATRPDLDLLRNSWGKLLAHLKQQNKVSHAALLNDSEPVAAGSAALVLKFKYEIHCKMVAEDNNGVRTNLEQILESMLGKRMDLIGVPEAQWGKIREEFLEDHQQENEGSNEPAEEDPLIAEAKKLVGADLIEIKD [F473L]
